Results reported in PMC7972841, “In Vivo Molecular Imaging of the Efficacy of Aminopeptidase N (APN/CD13) Receptor Inhibitor Treatment on Experimental Tumors Using ^68Ga-NODAGA-c(NGR) Peptide” (BioMed Research International, 2021).
Where two headings read alike, the source gives them in different places. Where a SMILES comes first, the peptide text is derived from it. Bridges are numbered along the chain shown (N, C = ends). The star is where a group is joined. NODAGA = O=C(O)CN1CCN(CC(=O)O)CCN(C(CCC(=O)*)C(=O)O)CC1

How the values were obtained:
in vitro = in vitro ADME; details: mouse, serum
Protocol: 5 mg (8.6 μmol) c[KNGRE]-NH2 peptide was dissolved in 0.9 mL 0.1 mol/dm^3 Na2CO3 buffer (pH = 8.42), then 7.5 mg (10.2 μmol) NODAGA-NHS ester dissolved in 0.1 mL DMSO was added to the peptide. The reaction was mixed for 24 hours at room temperature. NODAGA-c(NGR) was purified with semipreparative HPLC (KNAUER) and freeze-dried. For the radiolabeling procedure, the in vitro serum stability, and the determination of logp value, the same protocol was used as it was described earlier by our research group.
For the determination of the enzymatic stability, a stock solution was prepared from 100 μL of ^68Ga-NODAGA-c(NGR) solution and 1 mL PBS. 20 μL from this solution was introduced to 480 μL mouse serum (Sigma-Aldrich, St. Louis, Missouri, USA), and the mixture was tempered at 37°C. After 0, 30, 60, 90, and 120 min incubation time, 50 μL sample was taken and 50 μL abs. EtOH was added to the aliquots. Samples were centrifuged (20,000 rpm, 5 min), the supernatant was removed and diluted with the eluent of HPLC, then the analytical measurement was prepared.

[1] = set-up: species or system mice; details: mouse, in vivo
Protocol: (§2) After in vivo PET imaging, control-untreated tumor-bearing and treated tumor-bearing animals were euthanized with 5% Forane and dissected, and blood, urine, and samples were taken from the liver, spleen, kidney, small intestine, large intestine, stomach, heart, lungs, tumors, muscles, and fat. The weight and radioactivity of the selected organs and tissues were measured with a calibrated gamma counter (Hewlett Packard Cobra II Autogama Gamma Counter). The uptake of the APN/CD13-specific ^68Ga-NODAGA-c(NGR) radiotracer was expressed as %ID/g tissue.

HT1080 tumors (APN/CD13) = details: for T/M SUVmean ratio of treated tumor: 90 min after iv tracer; for ^68Ga-NODAGA-c(NGR) SUVmean of treated tumor: PET 90 min after iv tracer, mean ± SD
Protocol: (§3) For experimental tumor induction, mice were anaesthetized with a dedicated small animal anaesthesia device (Tec3 Isoflurane Vaporizer, Eickemeyer Veterinary Equipment, UK) using 3% isoflurane (Forane, AbbVie), 0.4 L/min O2, and 1.4 L/min N2O. After depilation of the left shoulder area of the animals, CB17 SCID mice (n = 30) were injected subcutaneously with 1.5 × 10^6 HT1080 (human fibrosarcoma) cells in 150 μL (1/3 part of Matrigel and 2/3 part of saline), and C57BL/6 mice (n = 30) were injected subcutaneously with 3 × 10^6 B16-F10 cells in 150 μL of sterile saline. […] The tumor size was calculated using the following formula: (largest diameter × smallest diameter^2)/2.
(§4) For the actinonin-treated groups, 5 mg/kg actinonin (dissolved in 10 μL abs. EtOH and diluted with 140 μL HumAqua (aqua destillata, TEVA, Debrecen, Hungary)) was administrated daily by intraperitoneal injection for 7 days. The control-untreated group was injected intraperitoneally with 150 μL saline for 7 days.
(§5) Five and ten days after tumor cell implantation, control-untreated tumor-bearing and treated tumor-bearing animals were anaesthetized with 3% isoflurane and were injected with 5.5 ± 0.2 MBq APN/CD13-specific ^68Ga-NODAGA-c(NGR) in 150 μL saline via the lateral tail vein. After 90 min incubation time, 20 min static PET scans were performed from the tumorous area using the preclinical miniPET device (University of Debrecen, Faculty of Medicine, Department of Medical Imaging, Division of Nuclear Medicine and Translational Imaging). After 3D OSEM-LOR image reconstruction, volumes of interest (VOIs) were manually drawn around the examined regions using the BrainCAD image analysis software and quantitative standardized uptake values (SUVs) were calculated as follows: SUV = [VOI activity (Bq/mL)]/[injected activity (Bq)/animal weight (g)], assuming a density of 1 g/mL. Tumor-to-muscle (T/M) ratios were calculated from the activity of the tumor and background (muscle).

[2] = system: B16-F10 tumors (APN/CD13); details: for T/M ratio of treated tumor: 90 min after iv tracer; for ^68Ga-NODAGA-c(NGR) SUVmean of treated tumor: PET 90 min after iv tracer, mean ± SD
Protocol: as §3, §4, §5

in vivo [3] = details: CB17 SCID, mouse, iv, 5.5 MBq, total radioactivity, SUVmean of tumor
Protocol: as §3, §4, §5

in vivo [4] = details: C57BL/6, mouse, iv, 5.5 MBq, total radioactivity, SUVmean of tumor
Protocol: as §3, §4, §5

in vivo [5] = details: CB17 SCID, mouse, iv, 5.5 MBq, total radioactivity
Protocol: as §4, §2

in vivo [6] = details: C57BL/6, mouse, iv, 5.5 MBq, total radioactivity, tracer uptake
Protocol: as §4, §2

HT1080 tumors = test: Tumor volume, HT1080 tumors; format: in vivo, CB17 SCID mice; details: caliper, n = 10/group
Protocol: (§6) For experimental tumor induction, mice were anaesthetized with a dedicated small animal anaesthesia device (Tec3 Isoflurane Vaporizer, Eickemeyer Veterinary Equipment, UK) using 3% isoflurane (Forane, AbbVie), 0.4 L/min O2, and 1.4 L/min N2O. After depilation of the left shoulder area of the animals, CB17 SCID mice (n = 30) were injected subcutaneously with 1.5 × 10^6 HT1080 (human fibrosarcoma) cells in 150 μL (1/3 part of Matrigel and 2/3 part of saline), and C57BL/6 mice (n = 30) were injected subcutaneously with 3 × 10^6 B16-F10 cells in 150 μL of sterile saline. Tumor growth was assessed by caliper measurements by the same experienced researcher. The tumor size was calculated using the following formula: (largest diameter × smallest diameter^2)/2.
as §4

B16-F10 tumors = test: Tumor volume, B16-F10 tumors; format: in vivo, C57BL/6 mice; details: caliper, n = 10/group
Protocol: as §6, §4

APN/CD13 = test: Western blot analysis of APN/CD13 in B16-F10 tumors; format: in vivo, mouse; details: B16-F10 melanoma after treatment, densitometry
Protocol: For western blot analysis, frozen tissue samples were pulverized under liquid nitrogen, and tissue homogenization was performed with TissueLyser II (QIAGEN). Tumors were lysed in a RIPA buffer. After protein isolation, protein samples (10-40 μg) were separated on 10% SDS polyacrylamide gels and electrotransferred onto nitrocellulose membranes. After blocking, the membranes were incubated with primary anti-human and anti-mouse CD13 (from Santa-Cruz Biotechnology, Inc., USA) antibody at the dilution of 1 : 1000 overnight at 4°C. After washing, the membranes were probed with IgG HRP conjugated secondary antibody (Cell Signaling Technology, Inc., Beverly, MA, 1 : 2000). Beta-actin was used as a loading control. Bands were visualized by enhanced chemiluminescence reaction. Densitometry was performed using the ImageJ software.
For western blot analysis frozen tissue samples were pulverized under liquid nitrogen and tissue homogenization was performed with TissueLyser II (QIAGEN). Cells were lysed in RIPA buffer (50 mM Tris, 150 mM NaCl, 0.1 % SDS, 1 % TritonX 100, 0.5 % sodium deoxycolate, 1 mM EDTA, 1 mM Na3VO4, 1 mM NaF, 1 mM PMSF, protease inhibitor cocktail). […] Upon densitometry, negative control samples (mouse large intestine) were considered to be 1 and values are expressed as fold change relative to controls to reduce unwanted variations. […]

AKR tumor = details: 5 mg/kg, syngeneic AKR tumor-bearing mice; cited from earlier work
Excerpt: (§1) In our further in vivo experiments, the efficacy of the actinonin and bestatin treatments was investigated on experimental tumors. The antitumor effect of actinonin was investigated earlier by Xu and coworkers on human (HL60, NB4) and murine (AKR) leukemia and lymphoma (RAJI, DAUDI) cell lines. […] In in vivo studies, syng ...

[7] = system: human (HL60, NB4) and murine (AKR) leukemia cell lines; details: in vitro; cited from earlier work
Excerpt: as §1

human lymphoma = details: subcutaneous human lymphoma-bearing nude mice; cited from earlier work
Excerpt: as §1

[8] = system: lymphoma (RAJI, DAUDI) cell lines; details: in vitro; cited from earlier work
Excerpt: as §1

HT1080 tumor = test: Ex vivo biodistribution, HT1080 tumor-bearing mice; details: HT1080 tumor-bearing mice treated ip daily (bestatin 15 mg/kg or actinonin 5 mg/kg), mean±SD, n=10
Protocol: as §4, §2

B16-F10 tumor = test: Ex vivo biodistribution, B16-F10 tumor-bearing mice; details: B16-F10 tumor-bearing mice treated ip daily (bestatin 15 mg/kg or actinonin 5 mg/kg), mean±SD, n=10
Protocol: as §4, §2

[9] = HT1080, day 5, bestatin 15 mg/kg or actinonin 5 mg/kg ip daily
[10] = HT1080, day 10, bestatin 15 mg/kg or actinonin 5 mg/kg ip daily 7 days
[11] = B16-F10, day 5, bestatin 15 mg/kg or actinonin 5 mg/kg ip daily
[12] = B16-F10, day 10, bestatin 15 mg/kg or actinonin 5 mg/kg ip daily 7 days

For `N=C(N)NCCC[C@@H]1NC(=O)CNC(=O)[C@H](CC(N)=O)NC(=O)[C@H](CCCCNC(=O)CCC(C(=O)O)N2CCN(CC(=O)O)CCN(CC(=O)O)CC2)NC(=O)CC[C@@H](C(N)=O)NC1=O` (some centres unmarked) [^68Ga-NODAGA-c(NGR), metal not drawn] (K(NODAGA)NGRE-NH2; lactam N-5 (inferred)), the remaining at 2 h (in vitro) was > 99%, the “accumulation in the kidneys” value [1] was 1.3-1.6 ID%/g and the “uptake in the liver” value [1] was 0.08-0.28 ID%/g. The SUVmean of tumor (HT1080 tumors (APN/CD13); CB17 SCID, mouse, in vivo, iv, 5.5 MBq, 1.5 h) was 0.10 ± 0.05, the SUVmean of tumor ([2]; C57BL/6, mouse, in vivo, iv, 5.5 MBq, 1.5 h) was 0.36 ± 0.05 and the SUV at 1.5 h (in vivo [3]) was 0.07 ± 0.03 SUV. It also gave an SUV at 1.5 h (in vivo [4]) of 0.19 ± 0.03 SUV, a tissue uptake at 1.5 h (in vivo [5]; T/M ID%/g (%ID/g tumor/%ID/g muscle)) of 5.3 ± 0.56 %ID/g and a tissue uptake at 1.5 h (in vivo [5]; tracer uptake, blood) of 0.04 ± 0.01 %ID/g. The tissue uptake at 1.5 h (in vivo [5]; tracer uptake, fat) was 0.02 ± 0.01 %ID/g, the tissue uptake at 1.5 h (in vivo [5]; tracer uptake, heart) was 0.03 ± 0.01 %ID/g and the tissue uptake at 1.5 h (in vivo [5]; tracer uptake, kidney) was 1.35 ± 0.45 %ID/g. It also gave a tissue uptake at 1.5 h (in vivo [5]; tracer uptake, large intestine) of 0.06 ± 0.01 %ID/g, a tissue uptake at 1.5 h (in vivo [5]; tracer uptake, liver) of 0.2 ± 0.01 %ID/g and a tissue uptake at 1.5 h (in vivo [5]; tracer uptake, lung) of 0.1 ± 0.02 %ID/g. For the same compound, the tissue uptake at 1.5 h (in vivo [5]; tracer uptake, muscle) was 0.01 %ID/g, the tissue uptake at 1.5 h (in vivo [5]; tracer uptake, small intestine) was 0.04 %ID/g and the tissue uptake at 1.5 h (in vivo [5]; tracer uptake, spleen) was 0.11 ± 0.02 %ID/g. For the same compound, the tissue uptake at 1.5 h (in vivo [5]; tracer uptake, stomach) was 0.04 ± 0.01 %ID/g, the tissue uptake at 1.5 h (in vivo [5]; tracer uptake, tumor) was 0.08 ± 0.04 %ID/g and the tissue uptake at 1.5 h (in vivo [6]; blood) was 0.09 ± 0.03 %ID/g. It also gave a tissue uptake at 1.5 h (in vivo [6]; fat) of 0.01 %ID/g, a tissue uptake at 1.5 h (in vivo [6]; heart) of 0.04 ± 0.01 %ID/g and a tissue uptake at 1.5 h (in vivo [6]; kidney) of 1.38 ± 0.13 %ID/g. For the same compound, the tissue uptake at 1.5 h (in vivo [6]; large intestine) was 0.06 ± 0.02 %ID/g, the tissue uptake at 1.5 h (in vivo [6]; liver) was 0.08 ± 0.02 %ID/g and the tissue uptake at 1.5 h (in vivo [6]; lung) was 0.1 ± 0.01 %ID/g. The tissue uptake at 1.5 h (in vivo [6]; muscle) was 0.02 %ID/g, the tissue uptake at 1.5 h (in vivo [6]; small intestine) was 0.07 ± 0.01 %ID/g and the tissue uptake at 1.5 h (in vivo [6]; spleen) was 0.05 ± 0.01 %ID/g. It also gave a tissue uptake at 1.5 h (in vivo [6]; stomach) of 0.06 ± 0.01 %ID/g and a tissue uptake at 1.5 h (in vivo [6]; tumor) of 0.27 ± 0.05 %ID/g.
In the case of `CCCCC[C@H](CC(=O)NO)C(=O)N[C@H](C(=O)N1CCC[C@H]1CO)C(C)C` [actinonin], the tumor volume (HT1080 tumors; HT1080, day 3 (start of treatment)) is reported as 49.1 ± 2.0 mm^3, the tumor volume (HT1080 tumors; [9]) is reported as 68.08 ± 2.5 mm^3 and the tumor volume (HT1080 tumors; [10]) is reported as 136.0 ± 8.5 mm^3. The tumor volume (B16-F10 tumors; B16-F10, day 3 (start of treatment)) was 49.0 ± 2.7 mm^3, the tumor volume (B16-F10 tumors; [11]) was 59 ± 4.9 mm^3 and the tumor volume (B16-F10 tumors; [12]) was 56.1 ± 2.1 mm^3. The “expression of APN/CD13 in tumor vs untreated” value (APN/CD13) was “significantly lower”, the “T/M SUVmean ratio of treated tumor” value (HT1080 tumors (APN/CD13); [9]) was 2.25 ± 1.0 and the “^68Ga-NODAGA-c(NGR) SUVmean of treated tumor” value (from here on “^68Ga-NODAGA-c(NGR) SUVmean”) (HT1080 tumors (APN/CD13); HT1080, day 5, ip daily from day 3 (bestatin 15 mg/kg, actinonin 5 mg/kg)) was 0.08 ± 0.04. For the same compound, the “T/M SUVmean ratio of treated tumor” value (HT1080 tumors (APN/CD13); [10]) was 15.57 ± 4.0, the “^68Ga-NODAGA-c(NGR) SUVmean” value (HT1080 tumors (APN/CD13); HT1080, day 10, ip daily 7 days (bestatin 15 mg/kg, actinonin 5 mg/kg)) was 0.11 ± 0.05 and the “T/M ratio of treated tumor” value [2, 11] was 0.75 ± 0.15. For the same compound, the “^68Ga-NODAGA-c(NGR) SUVmean” value ([2]; B16-F10, day 5, ip daily from day 3 (bestatin 15 mg/kg, actinonin 5 mg/kg)) was 0.02 ± 0.001, the “T/M ratio of treated tumor” value [2, 12] was 0.74 ± 0.05 and the “^68Ga-NODAGA-c(NGR) SUVmean” value ([2]; B16-F10, day 10, ip daily 7 days (bestatin 15 mg/kg, actinonin 5 mg/kg)) was 0.02 ± 0.001. For the same compound, the antitumor effect (AKR tumor) was “full antitumor effect”, the “tumor growth of APN/CD13-positive leukemia” value [7] was “blocked the tumor growth” and the antitumor effect (human lymphoma) was “not seen”. For the same compound, the “growth of APN/CD13-negative lymphomas” value [8] was “arrested the growth”, the “T/M ID%/g, treated animals” value (HT1080 tumor) was 15.27±5.52 and the “T/M ID%/g, treated animals” value (B16-F10 tumor) was 1.71±1.45.
